The source of these data is patent publication US20130101595A1.

Assay [1] addresses recombinant human IL-18 (rhIL-18) (human) (UniProt Q14116). The assay can be described thus: cell-based or functional assay.
The target is the same in assay [2]. The assay can be described thus: SPR (BIAcore), biotinylated rhIL-18 on streptavidin chip, antibody in solution. For orientation: Surface plasmon resonance follows binding to a sensor surface in real time, without labels.

B1: 125-2H (antibody, from another filing, V domains shown)
VH: EIQLQQSGPELVKPGASVKVSCKASGYSFTDYFIYWVKQSHGKSLEWIGDIDPYNGDTSYNQKFRDKATLTVDQSSTTAFMHLNSLTSEDSAVYFCARGLRFWGQGTLVTVSA
VL: DIQMTQSPSSLSASLGERVSLTCRASQDIGSKLYWLQQEPDGTFKRLIYATSSLDSGVPKRFSGSRSGSDYSLTISSLESEDFVDYYCLQYASSPYTFGGGTKLAIKR
As for B1, in assay [1], the IC50 Value, KG-1 cell-based IL-18 neutralization assay (hIFN-gamma) turned out to be 0.2 nM. Further, in assay [2], the Kd worked out at 0.62 nM, the koff turned out to be 0.00011 s⁻¹ and the kon amounted to 170000 M⁻¹ s⁻¹.

By Kd is commonly meant the free concentration of one partner at which half of the binding sites on the other are occupied at equilibrium, for simple one-to-one binding. What is called koff is the first-order rate constant of dissociation. In general, kon refers to the rate constant with which the complex forms.
